T1: APBA1_2, Q02410
T1 sequence (Q02410 742-832, limits assumed, looked up): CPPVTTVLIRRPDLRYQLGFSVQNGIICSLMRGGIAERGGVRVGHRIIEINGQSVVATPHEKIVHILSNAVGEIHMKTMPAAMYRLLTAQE

T2: APBA2_2, Q99767
T2 sequence (Q99767 654-744, limits assumed, looked up): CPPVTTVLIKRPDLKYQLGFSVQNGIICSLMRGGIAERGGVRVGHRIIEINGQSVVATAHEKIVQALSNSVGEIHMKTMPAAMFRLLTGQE

T3: ARHGAP21, Q5T5U3
T3 sequence (Q5T5U3 45-169, limits assumed, looked up): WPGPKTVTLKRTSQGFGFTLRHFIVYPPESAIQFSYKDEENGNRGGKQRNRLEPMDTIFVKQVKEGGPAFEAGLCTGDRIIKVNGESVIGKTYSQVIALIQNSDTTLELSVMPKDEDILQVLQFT

T4: GRIP1_7, Q9Y3R0
T4 sequence (Q9Y3R0 999-1096, limits assumed, looked up): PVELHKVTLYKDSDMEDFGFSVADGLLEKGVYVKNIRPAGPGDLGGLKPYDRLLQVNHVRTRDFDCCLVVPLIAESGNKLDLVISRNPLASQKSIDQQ

T5: HTRA4, P83105
T5 sequence (P83105 378-476, limits assumed, looked up): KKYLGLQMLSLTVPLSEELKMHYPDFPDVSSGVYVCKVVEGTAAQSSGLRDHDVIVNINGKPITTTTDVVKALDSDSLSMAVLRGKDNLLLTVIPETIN

T6: MPDZ_10, O75970
T6 sequence (O75970 1624-1722, limits assumed, looked up): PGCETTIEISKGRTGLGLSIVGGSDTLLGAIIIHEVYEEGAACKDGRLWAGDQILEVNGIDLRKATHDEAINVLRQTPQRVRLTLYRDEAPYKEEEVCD

T7: MPDZ_5, O75970
T7 sequence (O75970 695-796, limits assumed, looked up): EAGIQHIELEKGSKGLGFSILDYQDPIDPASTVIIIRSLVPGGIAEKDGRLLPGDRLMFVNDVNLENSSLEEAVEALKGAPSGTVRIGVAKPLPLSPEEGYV

T8: MPP2, Q14168
T8 sequence (Q14168 180-250, limits assumed, looked up): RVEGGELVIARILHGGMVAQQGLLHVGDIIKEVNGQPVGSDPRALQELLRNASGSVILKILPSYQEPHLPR

T9: MPP6, Q9NZW5
T9 sequence (Q9NZW5 125-219, limits assumed, looked up): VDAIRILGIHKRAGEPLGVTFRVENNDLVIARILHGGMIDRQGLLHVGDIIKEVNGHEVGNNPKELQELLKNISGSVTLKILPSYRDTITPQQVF

T10: MPP7, Q5T2T1
T10 sequence (Q5T2T1 134-230, limits assumed, looked up): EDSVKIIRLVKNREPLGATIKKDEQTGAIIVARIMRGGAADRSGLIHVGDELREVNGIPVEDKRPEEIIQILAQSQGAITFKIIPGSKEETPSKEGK

T11: PCLO, Q9Y6V0
T11 sequence (Q9Y6V0 4491-4600, limits assumed, looked up): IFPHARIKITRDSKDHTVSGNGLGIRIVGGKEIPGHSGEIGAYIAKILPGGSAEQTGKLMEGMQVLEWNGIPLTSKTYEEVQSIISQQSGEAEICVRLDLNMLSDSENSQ

T12: SNTG2, Q9NY99
T12 sequence (Q9NY99 68-166, limits assumed, looked up): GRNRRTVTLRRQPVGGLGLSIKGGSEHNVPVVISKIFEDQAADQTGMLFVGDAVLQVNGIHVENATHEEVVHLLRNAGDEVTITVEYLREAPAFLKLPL


Tests used:
Experiment in all cases: holdup assay
Set-up in all cases: key: below the threshold = too weak to quantify, mostly under pKd 3.1 to 4
Settings in all cases: plain residues with an end cap or a label only (N-terminal biotin on a linker: ado-ado)
APBA1_2, Q02410 = molecular target: T1, APBA1_2, Q02410
APBA2_2, Q99767 = molecular target: T2, APBA2_2, Q99767
ARHGAP21, Q5T5U3 = molecular target: T3, ARHGAP21, Q5T5U3
DLG1_1, Q12959 = molecular target: DLG1_1, Q12959
DLG1_3, Q12959 = molecular target: DLG1_3, Q12959
GRIP1_7, Q9Y3R0 = molecular target: T4, GRIP1_7, Q9Y3R0
GRIP2_3, Q9C0E4 = molecular target: GRIP2_3, Q9C0E4
Sequence of GRIP2_3, Q9C0E4 (Q9C0E4 238-339): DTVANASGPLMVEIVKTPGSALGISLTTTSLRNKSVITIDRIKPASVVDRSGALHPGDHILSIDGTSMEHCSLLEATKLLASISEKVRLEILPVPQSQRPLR

GRIP2_4, Q9C0E4 = molecular target: GRIP2_4, Q9C0E4
Sequence of GRIP2_4, Q9C0E4 (Q9C0E4 446-548): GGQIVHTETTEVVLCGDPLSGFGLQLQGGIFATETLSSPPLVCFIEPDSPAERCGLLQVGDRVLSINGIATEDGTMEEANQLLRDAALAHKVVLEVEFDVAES

GRIP2_5, Q9C0E4 = molecular target: GRIP2_5, Q9C0E4
Sequence of GRIP2_5, Q9C0E4 (Q9C0E4 544-642): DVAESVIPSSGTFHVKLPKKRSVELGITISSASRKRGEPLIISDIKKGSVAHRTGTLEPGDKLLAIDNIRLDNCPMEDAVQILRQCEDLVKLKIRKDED

HTRA4, P83105 = molecular target: T5, HTRA4, P83105
IL16_1, Q14005 = molecular target: IL16_1, Q14005
Sequence of IL16_1, Q14005 (Q14005 210-306): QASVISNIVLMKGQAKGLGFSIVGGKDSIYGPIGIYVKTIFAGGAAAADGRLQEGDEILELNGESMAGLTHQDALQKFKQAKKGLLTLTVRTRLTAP

LAP2, Q96RT1 = molecular target: LAP2, Q96RT1
Sequence of LAP2, Q96RT1 (Q96RT1 other isoform, or with tags, fused parts or gaps): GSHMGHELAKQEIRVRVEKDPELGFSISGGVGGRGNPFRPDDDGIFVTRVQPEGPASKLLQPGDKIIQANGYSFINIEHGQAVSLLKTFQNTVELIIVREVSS

LNX1_1, Q8TBB1 = molecular target: LNX1_1, Q8TBB1
Sequence of LNX1_1, Q8TBB1 (Q8TBB1 261-371): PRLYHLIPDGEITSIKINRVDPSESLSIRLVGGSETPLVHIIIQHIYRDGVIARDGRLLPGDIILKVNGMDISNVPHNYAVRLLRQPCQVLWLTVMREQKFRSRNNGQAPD

MAGI2_3, Q86UL8 = molecular target: MAGI2_3, Q86UL8
Sequence of MAGI2_3, Q86UL8 (Q86UL8 600-682): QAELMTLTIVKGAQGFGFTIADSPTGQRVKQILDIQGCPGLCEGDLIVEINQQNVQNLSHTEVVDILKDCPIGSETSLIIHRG

MAGI2_6, Q86UL8 = molecular target: MAGI2_6, Q86UL8
Sequence of MAGI2_6, Q86UL8 (Q86UL8 1141-1229): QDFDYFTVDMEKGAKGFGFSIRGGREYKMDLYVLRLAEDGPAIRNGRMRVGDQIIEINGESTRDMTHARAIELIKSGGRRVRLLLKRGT

MAGI3_2, Q5TCQ9 = molecular target: MAGI3_2, Q5TCQ9
Sequence of MAGI3_2, Q5TCQ9 (Q5TCQ9 398-503): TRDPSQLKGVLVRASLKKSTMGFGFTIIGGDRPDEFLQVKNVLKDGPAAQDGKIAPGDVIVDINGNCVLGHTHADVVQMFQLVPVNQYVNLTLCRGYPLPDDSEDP

MPDZ_10, O75970 = molecular target: T6, MPDZ_10, O75970
MPDZ_5, O75970 = molecular target: T7, MPDZ_5, O75970
MPP2, Q14168 = molecular target: T8, MPP2, Q14168
MPP6, Q9NZW5 = molecular target: T9, MPP6, Q9NZW5
MPP7, Q5T2T1 = molecular target: T10, MPP7, Q5T2T1
NHERF2_2, Q15599 = molecular target: NHERF2_2, Q15599
Sequence of NHERF2_2, Q15599 (Q15599 142-238): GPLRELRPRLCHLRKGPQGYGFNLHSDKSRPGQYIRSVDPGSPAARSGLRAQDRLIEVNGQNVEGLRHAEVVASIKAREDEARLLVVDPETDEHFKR

NHERF4_2, Q86UT5 = molecular target: NHERF4_2, Q86UT5
Sequence of NHERF4_2, Q86UT5 (Q86UT5 220-308): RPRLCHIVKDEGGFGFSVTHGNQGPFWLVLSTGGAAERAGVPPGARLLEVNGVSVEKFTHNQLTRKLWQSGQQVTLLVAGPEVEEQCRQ

PCLO, Q9Y6V0 = molecular target: T11, PCLO, Q9Y6V0
SCRIB_2, Q14160 = molecular target: SCRIB_2, Q14160
Sequence of SCRIB_2, Q14160 (Q14160 857-960): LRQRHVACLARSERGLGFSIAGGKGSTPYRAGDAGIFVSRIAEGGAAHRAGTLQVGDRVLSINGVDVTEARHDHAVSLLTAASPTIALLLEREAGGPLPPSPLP

SNTG2, Q9NY99 = molecular target: T12, SNTG2, Q9NY99

Row | Binder | pKd (APBA1_2, Q02410) | pKd (APBA2_2, Q99767) | pKd (ARHGAP21, Q5T5U3) | pKd (DLG1_1, Q12959) | pKd (DLG1_3, Q12959) | pKd (GRIP1_7, Q9Y3R0) | pKd (GRIP2_3, Q9C0E4) | pKd (GRIP2_4, Q9C0E4) | pKd (GRIP2_5, Q9C0E4) | pKd (HTRA4, P83105) | pKd (IL16_1, Q14005) | pKd (LAP2, Q96RT1) | pKd (LNX1_1, Q8TBB1) | pKd (MAGI2_3, Q86UL8) | pKd (MAGI2_6, Q86UL8) | pKd (MAGI3_2, Q5TCQ9) | pKd (MPDZ_10, O75970) | pKd (MPDZ_5, O75970) | pKd (MPP2, Q14168) | pKd (MPP6, Q9NZW5) | other results
1 | ALPLPQSSTC [IGF1R, P08069] | below the threshold | below the threshold | 3.76 | below the threshold | 3.56 | below the threshold | below the threshold | below the threshold | below the threshold | below the threshold | below the threshold | below the threshold | 3.58 | below the threshold | below the threshold | below the threshold | 3.56 | below the threshold | below the threshold | below the threshold | pKd (MPP7, Q5T2T1): below the threshold; pKd (NHERF2_2, Q15599): below the threshold; pKd (NHERF4_2, Q86UT5): below the threshold; pKd (PCLO, Q9Y6V0): below the threshold; pKd (SCRIB_2, Q14160): below the threshold; pKd (SNTG2, Q9NY99): below the threshold
2 | RRLQGTSSMV [GOLT1A, Q6ZVE7] | 3.71 | below the threshold | below the threshold | 4.08 | 3.58 | below the threshold | below the threshold | below the threshold | below the threshold | below the threshold | 4.13 | below the threshold | 3.83 | 3.77 | 3.68 | 5.02 | 3.65 | below the threshold | below the threshold | below the threshold | pKd (MPP7, Q5T2T1): below the threshold; pKd (NHERF2_2, Q15599): below the threshold; pKd (NHERF4_2, Q86UT5): below the threshold; pKd (PCLO, Q9Y6V0): below the threshold; pKd (SCRIB_2, Q14160): 3.57; pKd (SNTG2, Q9NY99): below the threshold
3 | TGPWKNETTV [ADGRA1, Q86SQ6] | below the threshold | below the threshold | below the threshold | 4.82 | 4.47 | below the threshold | below the threshold | below the threshold | below the threshold | 3.92 | 3.83 | 3.84 | below the threshold | 3.94 | 3.71 | 5.29 | below the threshold | below the threshold | below the threshold | below the threshold | pKd (MPP7, Q5T2T1): below the threshold; pKd (NHERF2_2, Q15599): below the threshold; pKd (NHERF4_2, Q86UT5): below the threshold; pKd (PCLO, Q9Y6V0): below the threshold; pKd (SCRIB_2, Q14160): 4.25; pKd (SNTG2, Q9NY99): 4.26
4 | REKKFFCTIL [GNG4, P50150] | 4.71 | 3.47 | 3.93 | 4.23 | 4.35 | below the threshold | below the threshold | below the threshold | below the threshold | 4.76 | 3.67 | 3.79 | 5.09 | below the threshold | 4 | 4.87 | 4.3 | below the threshold | 4.01 | below the threshold | pKd (MPP7, Q5T2T1): 3.49; pKd (NHERF2_2, Q15599): 4.52; pKd (NHERF4_2, Q86UT5): below the threshold; pKd (PCLO, Q9Y6V0): below the threshold; pKd (SCRIB_2, Q14160): below the threshold; pKd (SNTG2, Q9NY99): 4.35

Reference: paper PMC9482650, “Quantitative fragmentomics allow affinity mapping of interactomes” (Nature Communications, 2022)
